Test system: MS2 coat protein
Assay: apparent KD of MS2 coat protein; designed switch direction (-1 OFF switch, 1 ON switch): -1; higher = weaker reporter binding
Outline: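 Each step of the titration lasted 0.8–1.5 h at the lowest concentration and 10–20 min at the highest. The protein, SNAP-549-labelled MS2 coat protein, went from 0.7 or 1.5 nM doubling to 3 µM over RNA switches transcribed on Illumina chips by stalled E. coli RNA polymerase. Normalised cluster fluorescence was curve-fitted, and the per-design median over clusters is given as apparent KD.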

[1] = input ligand: microRNA oligo, concentration not stated
[2] = Eterna round: R95, input ligand: microRNA oligo, concentration not stated
[3] = Eterna round: R95, input ligand: FMN 200 uM
[4] = Eterna round: R95, input ligand: none

Sequence	apparent KD of MS2 coat protein (input ligand: FMN 200 uM)	apparent KD of MS2 coat protein [1]	apparent KD of MS2 coat protein (input ligand: none)	apparent KD of MS2 coat protein [2]	apparent KD of MS2 coat protein [3]	apparent KD of MS2 coat protein [4]
UAAAUGGUGUCAGGAUAUCCUGCAUAGUCUGCUGGAGAAGGGACAUGAGGAUCACCCAUGUAAGCCGGCAUGACUGAAUUCCUC [Atrice] (Eterna round: R96, puzzle: Exclusion NG 1)	50.7 nM	23.3 nM	32.2 nM	–	–	–
UAAAUGUCAGGAUAUUGUUAAUUUAGUUGUUUGUAUUAGUUCGAGAAGGGACAUGAGGAUCACCCAUGUUAAAA [Ex4 #52] (Eterna round: R97, puzzle: Exclusion 4)	37.6 nM	–	31 nM	–	–	–
UAAAUGUGAGGAUAUCAGGUGUGCUAGCGAACUGGUACAUCUGAGAAGGCACAUGAGGAUCACCCAUGUUCCUU [Mat - Exclusion 4 - Mod of JL - D50] (puzzle: Exclusion 4)	–	–	–	16.2 nM	–	–
UAAAUGUGAGGAUAUUCGAAGAACACGGAGACGUGUUUUUCGGAGAAGGCACAUGAGGAUCACCCAUGUUCCUU [Mat - Exclusion 4 - JL Mod - D6] (Eterna round: R97, puzzle: Exclusion 4)	241 nM	–	29.8 nM	–	–	–
UAACAUGUAGAAGGAUAUCUGCACGUUUAGUGCAGAGAAGGUCUAACAUGAGGAUCACCCAUGUAGAUCAUUAAUUAAUUAAUU [ENG1/8-B2] (Eterna round: R96, puzzle: Exclusion NG 1)	15.8 nM	9.45 nM	12.9 nM	–	–	–
UAACCUCGCGUCAGGAUAUGUGAGGACUGUGACGCACAGAAGGGACAUGAGGAUCACCCAUGUGAAAGAAAUAA [Erlacema] (puzzle: Brourd's mod of Exclusion 4)	–	–	–	22.2 nM	–	–
UAACUUCUUGUAAGGAUAUCGGUCCCAAGGGACAACGAGAAGGUACAUGAGGAUCACCCAUGUGAAAUAAGAAU [Zala] (puzzle: Brourd's mod of Exclusion 4)	–	–	–	22.7 nM	66.6 nM	19.8 nM
UAAGAAUACUGAGGAUAUGCUAGUUUAUCUCAGGCAGAAGGCGGACUCAACAUGAGGAUCACCCAUGUAAGACGGGUACUAGAU [Ex NG1 #14] (Eterna round: R96, puzzle: Exclusion NG 1)	131 nM	92.2 nM	89 nM	–	–	–
UAAGAUUACCGAGGAUAUGCUGGUUUAUCUCAAGCAGAAGGCGGACUCAACAUGAGGAUCACCCAUGUAAGACGGGUACUAGAU [Ex NG1 #12] (Eterna round: R96, puzzle: Exclusion NG 1)	61.5 nM	69.1 nM	97.1 nM	–	–	–
UAAGAUUACCGAGGAUAUGCUGGUUUCUCUUAAGCAGAAGGCGGACUCAACAUGAGGAUCACCCAUGUAAGAAGGGUAUUAGAU [Ex NG1 #10] (Eterna round: R96, puzzle: Exclusion NG 1)	85.9 nM	78.6 nM	116 nM	–	–	–
UAAGAUUACCGAGGAUAUGGUAAUUUUUAUUAACCAGAAGGCGGACUCAACAUGAGGAUCACCCAUGUAUAAAGGGUAUUAGUU [JR_ExcNG1_Sub039] (Eterna round: R96, puzzle: Exclusion NG 1)	87.5 nM	70.7 nM	98.7 nM	–	–	–
UAAGUUGUGGUAGGAUAUACUUUAAAUUUCUCUAUCCAUACAUGAGGAUCACCCAUGUUUACAUUGUAGAAGGACCUUUUUGUU [JR_ExcNG2_Sub058] (Eterna round: R96, puzzle: Exclusion NG 2)	–	19.7 nM	–	–	–	–
UAAGUUUAGGUAGGAUAUACUUUAAAUUUCUCUAUCCAUACAUGAGGAUCACCCAUGUUUACAUUGUAGAAGGACCACUAUGUU [JR_ExcNG2_Sub055] (Eterna round: R96, puzzle: Exclusion NG 2)	–	19.8 nM	–	–	–	–
UAAGUUUAGGUAGGAUAUACUUUCAAUUUCUCUUUCCUUACAUGAGGAUCACCCAUGUUUACAUUGUAGAAGGACCACUAUGUU [JR_ExcNG2_Sub054] (Eterna round: R96, puzzle: Exclusion NG 2)	–	20.5 nM	–	–	–	–
UAAGUUUAGGUAGGAUAUACUUUUAAUUUCUCUUUCCUUACAUGAGGAUCACCCAUGUUUACAUUGUAGAAGGACCACUAUGUU [JR_ExcNG2_Sub053] (Eterna round: R96, puzzle: Exclusion NG 2)	17.8 nM	18.3 nM	26.4 nM	–	–	–
UAAUAAUAGCAAGGAUAUGAUUAUUAUAAUAUAUCAGAAGGUGCACAUGAGGAUCACCCAUGUUUUAUAAUUUGUAAUUUAAAU [2nd something] (Eterna round: R96, puzzle: Exclusion NG 1)	–	40.4 nM	–	–	–	–
UAAUAAUAGUCAGGAUAUAGUUAUUAUAAUAUACUAGAAGGGACACAUGAGGAUCACCCAUGUUUUAUAAUUUGUAAUUUAAAU [5th something] (Eterna round: R96, puzzle: Exclusion NG 1)	–	16.2 nM	–	–	–	–

Sequence	apparent KD of MS2 coat protein (input ligand: FMN 200 uM)	apparent KD of MS2 coat protein [1]	apparent KD of MS2 coat protein (input ligand: none)	apparent KD of MS2 coat protein [2]	apparent KD of MS2 coat protein [3]	apparent KD of MS2 coat protein [4]
UAAUACAAGUAAGGAUUCUACAUGAGGAUCACCCAUGUGCUCGUCUUAUAAAGUACUAUCACGAAAGUGAUAGUACA [Mat - Sensor v3 - turn-off var 1 - Eli Mod - D99] (puzzle: Sensor v3, turn-off variant 1)	–	–	–	148 nM	23.5 nM	26.4 nM
UAAUACGAUGUCAGGAUAUGUAAGACACUUGUAACACAGAAGGGACAUGAGGAUCACCCAUGUAAGGGCUCUUC [Rimala] (puzzle: Brourd's mod of Exclusion 4)	–	–	–	20.4 nM	51.4 nM	22.6 nM
UAAUAGUAUGUUAGGAUAUGCUGGUCCUUGGAUCAGCAGAAGGAACAUGAGGAUCACCCAUGUAGAAUAUUUUA [Mod of JL 18 - Jieux - Brourd's mod of Exclusion 4] (Eterna round: R97, puzzle: Brourd's mod of Exclusion 4)	56.8 nM	–	18.1 nM	–	–	–
UAAUAGUCAGGAUAUACAUGAGGAUCACCCAUGUAGAAAUGAACCUGGGUUCUCCUAGGUAGAAGGGACAAAAG [Geerqu] (puzzle: Exclusion 3)	–	–	–	22.7 nM	28.7 nM	24.1 nM
UAAUAUCUGUAGGAUAUCAGUGGAAAACACGUAUGAGAAGGGCAGACAUGAGGAUCACCCAUGUAUAGGGUCCG [BotMod 7 - Jieux - Exclusion 6] (Eterna round: R97, puzzle: Exclusion 6)	61.9 nM	–	20.9 nM	–	–	–
UAAUAUCUGUAGGAUAUCAGUGGAGCACACGUAUGAGAAGGGCAGACAUGAGGAUCACCCAUGUAUAGGGUCCG [BotMod 5 - Jieux - Exclusion 6] (Eterna round: R97, puzzle: Exclusion 6)	38.7 nM	–	29.3 nM	–	–	–
UAAUGUGCGAGAGGAUAUCGUGUACAAAGUACACGAGAAGGCUUCACAUGAGGAUCACCCAUGUACCGAGGUGAAACACCUUGA [Omei Exc(NG)1 B] (Eterna round: R96, puzzle: Exclusion NG 1)	950 nM	110 nM	383 nM	–	–	–
UAAUUAAGUGUGAGGAUAUGCUGGUCCUUGGAUCAGCAGAAGGCACAUGAGGAUCACCCAUGUAAUAUAUUUAU [JL bmx4 3.11] (puzzle: Brourd's mod of Exclusion 4)	–	–	–	81.9 nM	–	–
UAAUUAAUUAAUUAAUAAUACAUGAGGAUCACCCAUGUAGAUCCUACAUACAAGCUAAGUAGCUCGUCUUAUAAUUA [Stov1/2-A1] (Eterna round: R97, puzzle: Sensor, turn-off variant 1)	364 nM	–	353 nM	–	–	–
UAAUUCAGAGGAUAUGCGCAUAGAUAAGACUUUUUUUUUUAACAUGAGGAUCACCCAUGUAGAAGGCUGUAAUU [Ex2 #54] (Eterna round: R97, puzzle: Exclusion 2)	24 nM	–	23.1 nM	–	–	–
UAAUUGAUUAAUAGAUUAUACAUGAGGAUCACCCAUGUAGGUCCUACGUGCCAUUUAAGUAGCUCGUCUUAUUCCCA [Sensor-V1 #67] (Eterna round: R97, puzzle: Sensor, turn-off variant 1)	40.2 nM	–	45.6 nM	–	–	–
UAAUUGUGAGGAUAUCAGGUGUGCUAGCGUACUGGUACAUCUGAGAAGGCACAUGAGGAUCACCCAUGUUCCUU [Mat - Exclusion 4 - Mod of JL - D47] (puzzle: Exclusion 4)	–	–	–	13.6 nM	–	–
UAAUUGUGAGGAUAUUCGUUUUUCACGGAGACGUGAAGAACGGAGAAGGCACAUGAGGAUCACCCAUGUUCCUU [Mat - Exclusion 4 - JL Mod - D15] (Eterna round: R97, puzzle: Exclusion 4)	89.3 nM	–	19.5 nM	–	–	–
UACAAGCAAGGAUAUACAUGAGGAUCACCCAUGUCACUCCUAGCGCGGGUUUUGAAAUGUAGAAGGUGCACCUG [EX3 B.14] (Eterna round: R97, puzzle: Exclusion 3)	17.3 nM	–	20.5 nM	–	–	–
UACAAUAAGGAGGAUAUCGUAUCGGAAACGAUACGAGAAGGCUUAACAUGAGGAUCACCCAUGUUCUUCAAUAU [Mat - Exclusion 6 - Eli Mod - D97] (puzzle: Exclusion 6)	–	–	–	15.2 nM	18.7 nM	15.6 nM
UACACUGCAUGAGGAUCAAACAUGAGGAUCACCCAUGUAUAGCAGGCUUUUUGCACGUCUUAUAAUUAUGUAGUGUA [Electric Eye 15 - Jieux - Sensor, turn-off variant 1] (Eterna round: R97, puzzle: Sensor, turn-off variant 1)	14.2 nM	–	14.4 nM	–	–	–

Source: the supplement of paper PMC9170038
